Measured values reported in patent US20130177572A1.

Tests used:
human PDGFRβ (human) = human PDGFRβ (human) (UniProt P09619); assay: solution equilibrium binding: 35S-Met labelled in vitro translated protein, human PDGFRβ titrated (0 to 20 nM), capture on protein A beads, scintillation counts
[1] = biological target: human PDGFR-hIgG1-Fc chimeric fusion protein (human) (UniProt P09619); assay: SPR (Biacore T100), PDGFR-Fc captured by anti-hIgG1 Fc, 1:1 model
Sequence of human PDGFR-hIgG1-Fc chimeric fusion protein (human) (P09619 33-530 limits assumed, stated change not applied): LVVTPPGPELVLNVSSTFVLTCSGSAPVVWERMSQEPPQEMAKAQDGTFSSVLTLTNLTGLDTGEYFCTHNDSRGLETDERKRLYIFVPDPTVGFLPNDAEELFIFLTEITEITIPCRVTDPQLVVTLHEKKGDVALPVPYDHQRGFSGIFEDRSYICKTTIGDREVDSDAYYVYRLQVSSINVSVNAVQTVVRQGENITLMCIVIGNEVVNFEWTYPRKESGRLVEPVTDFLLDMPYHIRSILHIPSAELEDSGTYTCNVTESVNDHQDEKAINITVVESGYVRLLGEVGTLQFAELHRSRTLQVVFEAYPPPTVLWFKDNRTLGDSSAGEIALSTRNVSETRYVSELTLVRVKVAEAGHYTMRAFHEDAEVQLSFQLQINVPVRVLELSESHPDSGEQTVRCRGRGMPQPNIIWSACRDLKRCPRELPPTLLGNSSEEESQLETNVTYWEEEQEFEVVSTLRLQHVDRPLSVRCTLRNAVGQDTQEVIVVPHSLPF

Sequence of human PDGFRβ (human) (P09619 33-530 limits assumed): as the sequence (P09619 33-530 limits assumed, stated change not applied) above

Kd (human PDGFRβ (human)): 0.03 nM
Kd [1]: 2.18 nM
koff [1]: 0.00154 s⁻¹
kon [1]: 706000 M⁻¹ s⁻¹
B1: XB2202/A4 scFv (scFv, part only; not given: Linker, domain order and tag, V domains shown, not shown: another chain or arm of the molecule; small tags and cut ends)
VH: QVQLVQSGAEVKKPGSSVRVSCKASGGTFSRHAISWVRQAPGQGLEWIGGILPILKTPNYAQRFQGRVTINADESTSTVYMEMSSLRSEDTAVYYCATHGGDRSYWGQGTLVTVSS
VL: DVVMTQSPSSLSASVGDRVTITCQASQDISNWLNWYQQKPGKAPKLLIYEASNLETGVPSRFSGSGSGTDFTFTISSLQPEDIATYYCQQYNNVLRTFGQGTKVEIK
